From the supplement of paper PMC9170038

System: MS2 coat protein
Test: apparent KD of MS2 coat protein; designed switch direction (-1 OFF switch, 1 ON switch): 1; higher = weaker reporter binding
Summary of the method: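 RNA switches sharing common flanks were transcribed by stalled E. coli RNA polymerase on Illumina chips. A doubling series of SNAP-549-labelled MS2 coat protein, from 0.7 or 1.5 nM to 3 µM, was applied in Tris-HCl pH 7.5 buffer with KCl, MgCl2, BSA, DTT, tRNA and Tween-20. Each step lasted 0.8–1.5 h at the bottom of the series and 10–20 min at the top. Normalised cluster fluorescence was curve-fitted, giving apparent KD as the per-design median over clusters.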

[1] = input ligand: microRNA oligo, concentration not stated
[2] = Eterna round: R95, input ligand: microRNA oligo, concentration not stated
[3] = Eterna round: R95, input ligand: FMN 200 uM
[4] = Eterna round: R95, input ligand: none

Sequence	apparent KD of MS2 coat protein (input ligand: FMN 200 uM)	apparent KD of MS2 coat protein [1]	apparent KD of MS2 coat protein (input ligand: none)	apparent KD of MS2 coat protein [2]	apparent KD of MS2 coat protein [3]	apparent KD of MS2 coat protein [4]
AAACAUGAGCGAGGAUAUACAUGAGGAUCACCCGUAGAAGGCGCAUGUAAAACAACAUGAGGAUCACCCAUGUCAUGUACAUGA [Same State NG1 S1] (Eterna round: R96, puzzle: Same State NG 1)	61.5 nM	55 nM	66.9 nM	–	–	–
UACUGAGUCGUAGGAUAUGUAGGAUAUGGCGAGAGCUAAGCUUGGAAGUCACUUCAGCCAGAAGGACAGAAGGACGACUCUCUC [pwkr ssNG2 2FMN + F9.13] (Eterna round: R96, puzzle: Same State NG 2)	40 nM	273 nM	51.1 nM	–	–	–
GUGGCCCAGGCACAGGAUAUGUUUCUCGUAACAUGAGGAUCACCCAUGUGCCUAUGAGAUUUUUUGCAGAAGGGUGCACGCCACG [JL Atiinbe mod 02] (puzzle: Same State 2)	–	–	–	134 nM	–	–
AAAAAACAUGAGGAUCACCCAUGUCAAAAGACAUGAGGAUAUGUACAGACUUCGGUCUGUACAGAAGGCAUGAAAA [salish99_ss1_r3_093] (puzzle: Same State 1)	–	–	–	570 nM	32.2 nM	528 nM
AUUCGUUUGAUAGGAUAUCACUUUACAUGAGGAUCACCCAUGUUCACCACGCUGGUCCCUUAUACUGAGAAGGAUCUUGAUGAC [JR_SSNG2_Sub008] (Eterna round: R96, puzzle: Same State NG 2)	107 nM	64.5 nM	95.7 nM	–	–	–
ACAUGAGGAUCACCCAUGUAUUUAUUUGAAUCUUAAGUUACGUAGGAUAUCGUGUAUACUAUCAUCGAGAAGGACGAUGUGAUA [JR_SSNG3_Sub068] (Eterna round: R96, puzzle: Same State NG 3)	–	12.5 nM	–	–	–	–
AAAAUGGUAUGUUACAUGAGGAUCACCCAUGUACGGUCAUCUGAGGAUAUGGUGAUGUAGAAGAAUCAGAAGGCAGACAUUUAA [AK SSNG3-V2-26] (Eterna round: R96, puzzle: Same State NG 3)	27.9 nM	19.8 nM	32.3 nM	–	–	–
UCAAGGUUUUUGCUCGUUUUAUGUGUUGAACAUGAGGAUCACCCAUGUAUUGUACGAUCCAGUUAGAUGGUGGUUUG [JR_SHM208A_Sub042] (puzzle: Sensor for hsa-mir-208a)	–	–	–	78.1 nM	87.4 nM	132 nM
GAAAGCAACGGAGGAUAUUCGCGUACGUUGGACGAAGAAGGCCGACAUGAGGAUCACCCAUGUACGAAUCACGCCAUAGCAUUA [Eternabot solution 12] (Eterna round: R96, puzzle: Same State NG 1)	23.9 nM	16.4 nM	19.7 nM	–	–	–
AGUAGUGUAACAUGAGGAUCACCCAUGUAAGAAUAUGUAACCUAGGAUAUGGAGGUUAUGUUUGACCAGAAGGAGGAUUGUUUA [JR_SSNG3_Sub041] (Eterna round: R96, puzzle: Same State NG 3)	27 nM	20.3 nM	25.9 nM	–	–	–
UGUACAUGAGGAUCACCCAUGUCUAGACAUGUUAAUAUAAUGUAGGAUAUAUAAAAUUUAAAUUAAUAGAAGGACAAUUUUUUU [JMF's solution 2] (Eterna round: R96, puzzle: Same State NG 3)	113 nM	155 nM	212 nM	–	–	–
CUGCUCGUGUGAGGAUAUGCCGCCGUUUCGGCUGCAGAAGGUGCUACGUAACAUGAGGAUCACCCAUGUCUCUGUUGUUUCGUU [salish99_SSNG1_r04_949] (Eterna round: R96, puzzle: Same State NG 1)	37.4 nM	35.2 nM	34 nM	–	–	–
GUAGCAUGCAGCGAGGAUAUUCAUAUUAAAACAUGAGGAUCACCCAUGUAGGCCAAAAGGCCUUGGGAGAAGGCGCACAUGCUAC [Xeonanis - 20] (puzzle: Same State 2)	–	–	–	527 nM	31.2 nM	717 nM
AUUUUUAAUGCAGGAUAUGAUUAACAUGAGGAUCACCCAUGUGGUGUUGUGAGUAAGGAGAGUGAUCAGAAGGGCAUUUUUUAU [JMF's solution 86] (Eterna round: R96, puzzle: Same State NG 2)	453 nM	702 nM	441 nM	–	–	–
GAGGGCGGAAACAACAUGAGGAUCACCCAUGUUGCCGAAAGGCAGGAUAUCCGGCGAAAGCAGAAGGAGAAGGGUCGAAAAGAA [AK SSNG3-V2-41] (Eterna round: R96, puzzle: Same State NG 3)	20.7 nM	20 nM	24.1 nM	–	–	–
GUCAGGUAAGCUUUUUUCUCGUAGUGUAAACAUGAGGAUCACCCAUGUGCUCACCCUGGAUCUUUGGAUCGCAGAAA [Atormace] (puzzle: Sensor for hsa-mir-208a)	–	–	–	14.3 nM	16.5 nM	17.1 nM

Sequence	apparent KD of MS2 coat protein (input ligand: FMN 200 uM)	apparent KD of MS2 coat protein [1]	apparent KD of MS2 coat protein (input ligand: none)	apparent KD of MS2 coat protein [2]	apparent KD of MS2 coat protein [3]	apparent KD of MS2 coat protein [4]
CCGAUGGUAUACUAGGAUAUGGGCGCCCUUACAUGAGGAUCACCCAUGUUUACACAAAUCCGCGGCCAGAAGGAGUUCAUGGGAG [Orgere] (Eterna round: R96, puzzle: Same State 2)	134 nM	85.6 nM	112 nM	–	–	–
GGCAGGUGCAGGCUUGCUUGCACCUGGAAACAUGAGGAUCACCCAUGUUUGGGACAAGCUUUGCUCCUCGUCUUGUC [JL ViennaUCT Isusreraar mod 2] (Eterna round: R96, puzzle: Sensor for hsa-mir-208a)	38.4 nM	39.2 nM	42.8 nM	–	–	–
GGUAGGUUACUACCAAACAUGAGGAUCACCCAUGUAAGUGGGAAGGAUAUGGUACCUUUUAGGUACCAGAAGGUCCAUAUAGUU [JL Fiskers NG3ss - 2 mod 9] (Eterna round: R96, puzzle: Same State NG 3)	405 nM	141 nM	501 nM	–	–	–
UGGUACAUGGGAGGAUAUGGGCAUGAGACAUGAGGAUCACCCAUGUAUUAAAAGCCGAAAGGCAUCUAGAAGGCCCAUGUACCU [JL SSNG1 3.85] (Eterna round: R96, puzzle: Same State NG 2)	17.1 nM	137 nM	214 nM	–	–	–
GGCCAGAGUCAAGGAUAUGCUACCGUUUCGGUAGCAGAAGGUGAUCACAUGAGGAUCACCCAUGUUUACUGCGAGAGUAUGGCC [JL SSNG1 3.67] (Eterna round: R96, puzzle: Same State NG 1)	661 nM	197 nM	214 nM	–	–	–
GGCUAUCGCGUACGAUAGCUGAAGCGUGUACAUGAGGAUCACCCAUGUCAUGUACAAGCUUUUUGCUCGUCUUAUUG [JL-shm-2.33 JL mod] (puzzle: Sensor for hsa-mir-208a)	–	–	–	18.2 nM	155 nM	328 nM
AGUCCAGCCAGAGCUGGACAAAAGCAUGUACAUGAGGAUCACCCAUGUUCAUGUACAAGCUUUUUGCUCGUCUUAAA [Mat - hsa-mir-208a - Mod of JL - 55] (puzzle: Sensor for hsa-mir-208a)	–	–	–	15 nM	545 nM	–
UGGUACAUGGGAGGAUAUCAUGCAAACAUGAGGAUCACCCAUGUAACCAUGGAGACAUGGAUAUAUGAGAAGGCCCAUGUACCU [JL SSNG1 3.51] (Eterna round: R96, puzzle: Same State NG 2)	11 nM	19.6 nM	27.9 nM	–	–	–
ACCCGCAGCCGUCAGGAUAUGUUCGCGUCAACAUGAGGAUCACCCAUGUGUGACAAGAAGUACACGCAGAAGGGAUCAAUGCGGG [Bienri] (Eterna round: R96, puzzle: Same State 2)	13.4 nM	11.7 nM	17.8 nM	–	–	–
AUUAUUUCAUGAGGAUAUGGCACCUUAUUGGUGCCAGAAGGCAUGUCAUUAGACAUGAGGAUCACCCAUGUAUUAUAUUAUAUA [Fiskers NG1ss - 13] (Eterna round: R96, puzzle: Same State NG 1)	41.5 nM	392 nM	534 nM	–	–	–
GAGGAUGAUUUACAGGAUAUAUAGGAGAUGACAUGAGGAUCACCCAUGUAAGAGAGAGGAGGGAGAUAGAAGGGUAAGGGAUGUG [JR_SS2_Sub42] (puzzle: Same State 2)	–	–	–	42.2 nM	44.3 nM	59.5 nM
CCGUAAUAUGGAGGAUAUGGAGCCUUAUUGGCUCCAGAAGGUCAUAAAACAUGAGGAUCACCCAUGUCGGCGGUCAAUAGACCG [Eli NG1ss - 77] (Eterna round: R96, puzzle: Same State NG 1)	–	42.6 nM	–	–	–	–
GCUCGACGUAUUGUUUACAUGAGGAUCACCCAUGUAGGUGCGAAGGAUAUCUACGUGUUUCAUGUAGAGAAGGUCGUGUCGAGC [SameState NG3 #92] (Eterna round: R96, puzzle: Same State NG 3)	19.3 nM	42.5 nM	54.1 nM	–	–	–
GAUUAACAUGAGGAUCACCCAUGUCGUUUUAUGGGAGGAUAUACGUGGACCGUAGUCCGCGUAGAAGGCCUAAUUG [JL-ss1-3.23 janelle mod] (puzzle: Same State 1)	–	–	–	97.3 nM	–	–
UGGAGAAAUCAAGGAUAUGCUACCGUUUCGGUAGCAGAAGGUGAUCACAUGAGGAUCACCCAUGUAUGCAUGCGUGAGCGUGCU [JL SSNG1 3.54] (Eterna round: R96, puzzle: Same State NG 1)	–	12.6 nM	–	–	–	–
GGUGUACAUGAGGAUCACCCAUGUCGACCGCUCACAGGAUAUUUAUUACAAACUGGUAGCGGAGAAGGGUGAGGGC [Maarraar] (puzzle: Same State 1)	–	–	–	32.6 nM	36.4 nM	37.6 nM
